Experimental data taken from patent US20020045591A1, “Methods and therapeutic compositions for treating cancer” (priority 1998, published 2002).

Assays:
SW480 cells = assay: Immunofluorescence localization in SW480 cells (Example 1); assay type: cell-based, human; conditions: transfected SW480 cells, FIG. 6B
Text: Immunofluorescence microscopy: Cells cultured on glass coverslips were fixed with 3% paraformaldehyde in phosphate-buffered saline (PBS) and permeabilized with 0.5% Triton X-100. CHO cells were immunofluorescently labeled as described (Levenberg S. et al. (1998) Long-range and selective autoregulation of cell-cell and cell-matrix adhesions by cadherin or integrin ligands. J. Cell Sci. 111:347-357). Nuclei were visualized using DAPI and the fluorescence was examined using a Zeiss Axiophot microscope and a x100/1.3 Planapochromat objective.

β-catenin [1] = target: T1, β-catenin (Cricetulus griseus, UniProt G3H996); assay: Co-immunoprecipitation of cadherin derivatives with β-catenin in CHO cells; assay type: binding; conditions: stably transfected CHO cells, FIG. 2B
T1 construct: resulting from the stabilization of the endogenous β-catenin by the transfected cadherin derivatives; endogenous in cells; host or cells: CHO cells, stably or transiently transfected with cadherin derivatives only
T1 sequence (G3H996 1-781): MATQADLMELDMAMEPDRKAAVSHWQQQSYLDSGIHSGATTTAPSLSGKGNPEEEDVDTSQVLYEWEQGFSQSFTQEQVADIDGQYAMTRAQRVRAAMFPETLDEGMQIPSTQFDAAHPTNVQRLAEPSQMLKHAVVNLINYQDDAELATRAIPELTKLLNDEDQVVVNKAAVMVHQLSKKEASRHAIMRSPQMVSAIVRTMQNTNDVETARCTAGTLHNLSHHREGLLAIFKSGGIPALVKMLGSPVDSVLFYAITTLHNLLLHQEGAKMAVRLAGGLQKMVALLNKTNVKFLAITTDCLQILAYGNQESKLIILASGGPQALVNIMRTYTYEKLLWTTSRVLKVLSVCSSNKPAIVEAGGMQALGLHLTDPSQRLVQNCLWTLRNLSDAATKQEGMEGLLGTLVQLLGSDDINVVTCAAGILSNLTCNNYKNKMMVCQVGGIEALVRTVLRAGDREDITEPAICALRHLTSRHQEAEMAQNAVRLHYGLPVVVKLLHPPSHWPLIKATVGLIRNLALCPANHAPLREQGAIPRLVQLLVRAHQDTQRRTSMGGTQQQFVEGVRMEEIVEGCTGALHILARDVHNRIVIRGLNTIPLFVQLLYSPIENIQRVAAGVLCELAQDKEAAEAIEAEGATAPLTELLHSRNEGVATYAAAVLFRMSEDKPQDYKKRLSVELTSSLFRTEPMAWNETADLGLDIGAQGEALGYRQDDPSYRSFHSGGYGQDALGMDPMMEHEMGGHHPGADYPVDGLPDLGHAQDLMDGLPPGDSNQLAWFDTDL
Text: Immunoblotting and immunoprecipitation: The following antibodies were used: polyclonal pan-cadherin or monoclonal anti cadherin (CH-19) and polyclonal anti β-catenin antibodies were from Sigma (Holon, Israel). Monoclonal anti β-catenin, 5H10 (from M. Wheelock), anti IL2Rα (from UBI), anti flag (M2, from IBI), anti HA (clone 12CA5, from Boehringer Mannheim, Germany), anti GFP (polyclonal, from Clontech, Palo Alto, Calif.), anti LEF-1 (polyclonal, kindly provided by Dr. R. Grosschedl). Secondary antibodies for Western blotting were goat anti rabbit or anti mouse conjugated to HRP (Amersham, Buckinghampshire, UK), and for immunofluorescence analysis the secondary antibodies were FITC-goat anti mouse (Cappel, USA) or rhodamine-anti rabbit antibodies (from Jackson Immuno-Research, West Grove, Pa.). Cells were harvested in Laemmli's sample buffer and equal amounts of total cell protein from the different clones, or from transient transfections, were separated by SDS-PAGE, electrotransferred to nitrocellulose and incubated with the different antibodies. For immunoprecipitation, cells were harvested in IP buffer (20 mM Tris pH 8.0, 1% Triton X-100, 140 mM NaCl, 10% glycerol, 1 mM EGTA, 1.5 mM MgCl2, 1 mM DTT, 1 mM sodium vanadate, and 50 μg/ml PMSF). […]

LEF-1-β-catenin complex = target: T2, LEF-1-β-catenin complex (Mus musculus, UniProt Q02248); assay: Competition with LEF-1 for β-catenin binding (HA-LEF-1 immunoprecipitation, CHO cells); conditions: increasing amounts of N-cadherin tail cDNA, FIG. 8
T2 construct: expressed in transfected cells; host or cells: CHO cells, transient transfection
T2 sequence (Q02248 1-781): T1 sequence (G3H996 1-781)
Text: Immunoblotting and immunoprecipitation: The following antibodies were used: polyclonal pan-cadherin or monoclonal anti cadherin (CH-19) and polyclonal anti β-catenin antibodies were from Sigma (Holon, Israel). Monoclonal anti β-catenin, 5H10 (from M. Wheelock), anti IL2Rα (from UBI), anti flag (M2, from IBI), anti HA (clone 12CA5, from Boehringer Mannheim, Germany), anti GFP (polyclonal, from Clontech, Palo Alto, Calif.), anti LEF-1 (polyclonal, kindly provided by Dr. R. Grosschedl). Secondary antibodies for Western blotting were goat anti rabbit or anti mouse conjugated to HRP (Amersham, Buckinghampshire, UK), and for immunofluorescence analysis the secondary antibodies were FITC-goat anti mouse (Cappel, USA) or rhodamine-anti rabbit antibodies (from Jackson Immuno-Research, West Grove, Pa.). […]
The N-cadherin tail inhibits the formation of a LEF-1-β-catenin complex: The inhibition by N-cadherin of β-catenin driven-transactivation could result from either displacement of LEF-1 binding to β-catenin by N-cadherin, or by formation of a ternary complex (cadherin-LEF-1-β-catenin) that has no transactivation potential. […] After transfection, LEF-1 was immunoprecipitated with anti HA antibody and the associated β-catenin was detected by Western blot analysis (FIG. 8A). […]

β-catenin [2] = target: T1, β-catenin; assay: β-catenin level in CHO cells by Western blot; assay type: cell-based; conditions: stably transfected CHO cells, FIG. 2A
Protocol: Cell culture and transfections: CHO and SW480 human colon carcinoma cells were cultured in Dulbecco's modified Eagle's medium containing 10% fetal calf serum in an 8% CO2 incubator at 37° C. Transfections were performed using Lipofectamine (Gibco, BRL, USA) according to the manufacturer's instructions. Stably transfected CHO clones were generated by co-transfection with a plasmid encoding the puromycin resistance gene. Two days after transfection, cells were replated in the presence of 10 μg/ml puromycin (Sigma, Holon, Israel). Stable clones were isolated 2 weeks later and tested for the expression of the transgene by Western blot analysis.
Immunoblotting and immunoprecipitation: The following antibodies were used: polyclonal pan-cadherin or monoclonal anti cadherin (CH-19) and polyclonal anti β-catenin antibodies were from Sigma (Holon, Israel). Monoclonal anti β-catenin, 5H10 (from M. Wheelock), anti IL2Rα (from UBI), anti flag (M2, from IBI), anti HA (clone 12CA5, from Boehringer Mannheim, Germany), anti GFP (polyclonal, from Clontech, Palo Alto, Calif.), anti LEF-1 (polyclonal, kindly provided by Dr. R. Grosschedl). […]

B1: N-cadherin tail: Cytoplasmic domain of chicken N-cadherin tagged with a Flag epitope (protein)
chain: MKRRDKERQAKQLLIDPEDDVRDNILKYDEEGGGEEDQDYDLSQLQQPDTVEPDAIKPVGIRRLDERPIHAEPQYPVRSAAPHPGDIGDFINEGLKAADNDPTAPPYDSLLVFDYEGSGSTAGSLSSLNSSSSGGEQDYDYLNDWGPRFKKLADMYGGGDD
modifications: left off: small tags and cut ends
SW480 cells
  subcellular localization of β-catenin: colocalized with β-catenin in the nucleus
β-catenin [1]
  interaction with β-catenin by co-immunoprecipitation: direct interaction
LEF-1-β-catenin complex
  β-catenin binding to LEF-1: inhibited β-catenin binding to LEF-1 in a dose dependent manner
β-catenin [2]
  effect on β-catenin levels: increase in β-catenin levels
